Reference: paper doi:10.1101/2020.06.01.127704 (bioRxiv, 2020)

Biological target: the molecule itself
Assay: cryo-EM structure

B1: full-length human excitatory amino acid transporter 3 with two potential glycosylation sites mutated (N178T and N195T) (natural protein, UniProt P43005 1-524, looked up)
chain: MGKPARKGCEWKRFLKNNWVLLSTVAAVVLGITTGVLVREHSNLSTLEKFYFAFPGEILMRMLKLIILPLIISSMITGVAALDSNVSGKIGLRAVVYYFCTTLIAVILGIVLVVSIKPGVTQKVGEIARTGSTPEVSTVDAMLDLIRNMFPENLVQACFQQYKTKREEVKPPSDPEMTMTEESFTAVMTTAISKTKTKEYKIVGMYSDGINVLGLIVFCLVFGLVIGKMGEKGQILVDFFNALSDATMKIVQIIMCYMPLGILFLIAGKIIEVEDWEIFRKLGLYMATVLTGLAIHSIVILPLIYFIVVRKNPFRFAMGMAQALLTALMISSSSATLPVTFRCAEENNQVDKRITRFVLPVGATINMDGTALYEAVAAVFIAQLNDLDLGIGQIITISITATSASIGAAGVPQAGLVTMVIVLSAVGLPAEDVTLIIAVDWLLDRFRTMVNVLGDAFGTGIVEKLSKKELEQMDVSSEVNIVNPFALESTILDNEDSDTKKSYVNGGFAVDKSDTISFTQTSQF
stoichiometry N: 3
